Molecular target: T1, GST-AC8 1–77 (rat, UniProt P40146 1-77)
T1 sequence (looked up): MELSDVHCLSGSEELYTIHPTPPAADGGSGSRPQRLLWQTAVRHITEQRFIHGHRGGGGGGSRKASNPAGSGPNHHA
Test: pull-down

B1: AKAP150-HA (natural protein, rat, UniProt P24587 1-714, looked up)
chain: METSVSEIQIETKDEKRPEAASPQKERQERKTATLCFKRRKKVNKKKAKAGSKTAEETEKHAPEAGGSGQRQPAGAWASIKRLVTHRKPSESAEKQKPSEAEMQPEDGALPKKKTKSKLKIPCIRFSRGAKRSRPSKLTEDSGYVRVQGEADDLEIKAQIQPDEQATQAKSTQGLQEDVIVRDGKEIQESHISNNVISGEHVIGIELELEKESSALRMRTPGSEKEAKVILVKQGVQVQEASVLENSAADSPQPVTSTAPLSPATTHQLGLEEPSDSIRESAPSGKDDGRRKTAAEEKKSGETALGQAEEASSVSQADKSVLSQAEEATVGHTEEATVIQAQSQAKEGKLSQAEEATVAQAKETVLSQAEEVKLSQIEEPAISQAKKATVGQAKEAYVSQAEEAIVGHTEKATMGQAEEATVGHIEKTTVGQAEEATVGQAEEATVGQAEEATVGQAEEATVGQAEEATVGQAGEATVSHIEKTTVGQAEEAIVGQAEEATVGQAEEATVGQAEEATVGQAEEATVDQAEEATVGQAEEATVGQAGEAAVGQAEEAIVAQAEEATVGQAGEATVGQAEKATVGQAEEPIVGQAEETVLRHASDLKVNGVDAEKPRSEESKRMEPIAIIITDTEISEFDVKKSKNVPKQFLISMENEQVGVFANDSDFEGRTSEQYETLLIETASSLVKNAIELSVEQLVNEMVSEDNQINTLFQ
fold interaction against GST-AC8 73–179 (densitometry, HA band relative to GST): 1.6 fold

Reference: paper PMC2888445 (The Journal of Biological Chemistry, 2010)
